This passage reports MFI results from patent US20260159591A1.

In assay [1] the target is murine ITGA11 expressed in CHO cells (murine) (UniProt P61622). The experiment in a line: flow cytometry, 34 nM antibody on CHO cells expressing murine ITGA11.
The target in assay [2] is human ITGA11 expressed in mouse C2C12 cells (human) (UniProt Q9UKX5). The experiment in a line: flow cytometry, 34 nM antibody on C2C12 cells expressing human ITGA11.
human ITGA11 expressed in mouse C2C12 cells (human), sequence (Q9UKX5 23-1188): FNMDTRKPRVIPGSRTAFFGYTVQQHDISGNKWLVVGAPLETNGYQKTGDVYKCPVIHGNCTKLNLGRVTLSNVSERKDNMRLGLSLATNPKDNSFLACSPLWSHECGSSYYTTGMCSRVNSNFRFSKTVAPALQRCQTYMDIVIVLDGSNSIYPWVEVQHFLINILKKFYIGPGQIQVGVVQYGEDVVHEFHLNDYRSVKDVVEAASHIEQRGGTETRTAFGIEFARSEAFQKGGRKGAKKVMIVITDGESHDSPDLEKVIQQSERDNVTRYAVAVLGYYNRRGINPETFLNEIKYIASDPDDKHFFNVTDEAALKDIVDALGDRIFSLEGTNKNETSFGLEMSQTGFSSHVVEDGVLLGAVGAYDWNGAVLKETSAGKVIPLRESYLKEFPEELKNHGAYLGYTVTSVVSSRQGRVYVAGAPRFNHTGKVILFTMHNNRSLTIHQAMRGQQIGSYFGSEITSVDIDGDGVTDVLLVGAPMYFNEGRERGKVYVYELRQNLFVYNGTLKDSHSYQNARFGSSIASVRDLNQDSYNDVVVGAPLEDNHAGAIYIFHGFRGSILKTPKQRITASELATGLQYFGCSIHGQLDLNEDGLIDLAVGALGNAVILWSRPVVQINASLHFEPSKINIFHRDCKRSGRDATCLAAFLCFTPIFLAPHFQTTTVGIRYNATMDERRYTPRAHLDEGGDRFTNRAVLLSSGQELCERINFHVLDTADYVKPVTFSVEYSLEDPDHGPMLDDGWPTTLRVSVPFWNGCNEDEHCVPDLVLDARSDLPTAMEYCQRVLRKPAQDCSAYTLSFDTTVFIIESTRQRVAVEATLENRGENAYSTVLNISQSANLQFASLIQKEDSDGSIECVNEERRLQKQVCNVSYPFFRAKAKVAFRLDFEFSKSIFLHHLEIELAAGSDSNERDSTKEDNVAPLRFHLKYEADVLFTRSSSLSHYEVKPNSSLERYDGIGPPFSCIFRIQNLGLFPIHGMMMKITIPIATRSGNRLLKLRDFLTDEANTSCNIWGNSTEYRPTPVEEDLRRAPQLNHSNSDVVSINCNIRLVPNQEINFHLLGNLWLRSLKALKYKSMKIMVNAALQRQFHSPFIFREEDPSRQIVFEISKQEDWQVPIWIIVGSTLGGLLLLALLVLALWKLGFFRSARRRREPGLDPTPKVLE

murine ITGA11 expressed in CHO cells (murine), sequence (P61622 23-1188): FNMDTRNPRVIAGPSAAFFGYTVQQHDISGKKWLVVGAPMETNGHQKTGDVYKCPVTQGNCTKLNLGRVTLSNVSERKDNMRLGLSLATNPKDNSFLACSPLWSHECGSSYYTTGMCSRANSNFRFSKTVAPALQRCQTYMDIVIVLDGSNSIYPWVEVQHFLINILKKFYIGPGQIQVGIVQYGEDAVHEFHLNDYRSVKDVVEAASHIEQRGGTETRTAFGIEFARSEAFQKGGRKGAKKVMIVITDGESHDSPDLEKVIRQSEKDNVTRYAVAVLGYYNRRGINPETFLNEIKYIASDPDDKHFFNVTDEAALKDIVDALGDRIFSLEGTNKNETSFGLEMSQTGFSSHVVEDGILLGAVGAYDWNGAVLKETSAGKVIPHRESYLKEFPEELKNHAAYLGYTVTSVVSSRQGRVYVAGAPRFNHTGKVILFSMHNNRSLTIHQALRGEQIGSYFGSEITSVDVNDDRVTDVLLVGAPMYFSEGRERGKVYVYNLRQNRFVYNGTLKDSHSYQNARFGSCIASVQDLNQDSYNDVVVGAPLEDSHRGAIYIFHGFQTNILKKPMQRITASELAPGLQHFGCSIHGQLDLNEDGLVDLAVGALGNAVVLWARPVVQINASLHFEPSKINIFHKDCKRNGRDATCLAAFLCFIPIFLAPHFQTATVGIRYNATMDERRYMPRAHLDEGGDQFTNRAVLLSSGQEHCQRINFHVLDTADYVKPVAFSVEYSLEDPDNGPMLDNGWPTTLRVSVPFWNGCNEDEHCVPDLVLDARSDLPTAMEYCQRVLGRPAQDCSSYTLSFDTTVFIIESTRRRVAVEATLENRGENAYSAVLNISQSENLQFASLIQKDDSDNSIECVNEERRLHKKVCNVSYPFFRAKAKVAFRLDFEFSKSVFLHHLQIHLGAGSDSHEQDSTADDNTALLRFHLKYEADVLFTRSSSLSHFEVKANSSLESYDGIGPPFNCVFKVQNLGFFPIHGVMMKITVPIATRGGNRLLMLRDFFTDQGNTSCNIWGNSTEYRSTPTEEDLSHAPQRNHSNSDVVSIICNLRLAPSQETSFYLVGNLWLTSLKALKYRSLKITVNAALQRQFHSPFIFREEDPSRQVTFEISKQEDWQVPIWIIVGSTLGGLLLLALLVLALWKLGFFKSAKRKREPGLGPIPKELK

As to Control IgG4 (antibody), the results for the MFI in assay [1] and in assay [2] were 513 MFI and 557 MFI, respectively.
